Numbering of substitutions follows the chain as printed.
T1: partial CAPRIN-1 polypeptide consisting of the amino acid sequence of SEQ ID NO: 5 (human)
T1 construct: Synthetic peptide immobilized on ELISA plates
T1 peptide: ATQVPLVSSTSEGYTA

T2: human CAPRIN-1 protein having the amino acid sequence of SEQ ID NO: 2 (human, UniProt Q14444 1-709, limits assumed)
T2 construct: also called CAPRIN-1 proteins
T2 sequence: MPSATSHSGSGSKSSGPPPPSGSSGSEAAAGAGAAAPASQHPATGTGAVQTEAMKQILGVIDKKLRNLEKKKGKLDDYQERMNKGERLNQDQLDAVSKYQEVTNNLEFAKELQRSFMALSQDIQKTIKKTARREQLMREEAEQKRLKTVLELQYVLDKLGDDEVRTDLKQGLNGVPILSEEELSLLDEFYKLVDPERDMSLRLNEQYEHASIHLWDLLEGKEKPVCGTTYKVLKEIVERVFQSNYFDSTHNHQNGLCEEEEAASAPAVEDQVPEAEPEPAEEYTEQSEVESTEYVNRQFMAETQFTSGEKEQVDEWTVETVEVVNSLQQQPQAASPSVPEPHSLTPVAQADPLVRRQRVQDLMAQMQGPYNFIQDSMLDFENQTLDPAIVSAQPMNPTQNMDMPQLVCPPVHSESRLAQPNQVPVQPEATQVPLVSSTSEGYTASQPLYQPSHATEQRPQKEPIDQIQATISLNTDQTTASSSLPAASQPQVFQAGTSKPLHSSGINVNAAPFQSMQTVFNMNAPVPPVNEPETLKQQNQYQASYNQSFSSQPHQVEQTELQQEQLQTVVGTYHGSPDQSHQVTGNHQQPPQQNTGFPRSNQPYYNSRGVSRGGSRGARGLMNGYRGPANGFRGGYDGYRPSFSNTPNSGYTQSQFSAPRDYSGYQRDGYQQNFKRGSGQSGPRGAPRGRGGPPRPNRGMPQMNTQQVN

T3: CAPRIN-1 protein on the cell membrane surface of human cancer cell lines (human, UniProt Q14444 2-709)
T3 construct: whole, on cells; Endogenous CAPRIN-1 on human cancer cell lines (MDA-MB-231V, QG56, DLD-1, Capan-2 and others); The cells were not transfected; also called CAPRIN-1 on cancer cell surface
T3 sequence (looked up): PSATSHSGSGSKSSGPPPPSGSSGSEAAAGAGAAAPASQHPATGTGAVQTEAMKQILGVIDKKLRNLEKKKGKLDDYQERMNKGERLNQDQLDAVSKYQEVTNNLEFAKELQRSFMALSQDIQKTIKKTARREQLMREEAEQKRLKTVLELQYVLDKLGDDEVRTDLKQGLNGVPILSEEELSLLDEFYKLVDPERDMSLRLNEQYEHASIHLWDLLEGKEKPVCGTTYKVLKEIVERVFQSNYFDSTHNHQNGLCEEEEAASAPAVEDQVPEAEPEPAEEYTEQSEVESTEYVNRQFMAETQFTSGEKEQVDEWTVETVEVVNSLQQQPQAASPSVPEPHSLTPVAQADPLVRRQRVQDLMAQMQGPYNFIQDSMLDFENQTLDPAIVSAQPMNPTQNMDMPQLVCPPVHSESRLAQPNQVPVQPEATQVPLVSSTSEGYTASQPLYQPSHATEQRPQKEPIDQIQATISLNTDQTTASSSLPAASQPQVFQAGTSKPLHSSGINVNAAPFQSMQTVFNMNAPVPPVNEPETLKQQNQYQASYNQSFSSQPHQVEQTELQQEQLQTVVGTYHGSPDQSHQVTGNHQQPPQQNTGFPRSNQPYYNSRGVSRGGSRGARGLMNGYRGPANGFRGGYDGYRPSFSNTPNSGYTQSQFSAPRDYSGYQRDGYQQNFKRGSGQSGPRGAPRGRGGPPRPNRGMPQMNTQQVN

B1: rabbit anti-CAPRIN-1 monoclonal antibody #1 (antibody, V domains shown)
VH: QSLEESGGDLVKPGASLTLTCTASGFSFSGSYYMSWVRQAPGKGLEWIAYIYIGDGVTAYANWAKGRFTISKASSTTVTLQMTSLTAADTATYFCARGNKLWGPGTLVTVSS
VL: DVVMTQTPASVEAAVGGTVTIKCQASQSISSYLAWYQQKPGQPPKRLIYDASNLDSGVPSRFKGSGSGTDFTITISDLECADAATYYCQCTAVSSATIYGNAFGGGTEVVVK
notes: Rabbit hybridoma monoclonal antibody; also called rabbit anti-CAPRIN-1 antibody #1
B2: human-rabbit chimeric anti-CAPRIN-1 antibody #1 (antibody, human IgG1, V domains shown)
VH: B1 VH
VL: B1 VL
notes: also called human-rabbit chimeric anti-CAPRIN-1 monoclonal antibody #1
B3: humanized anti-CAPRIN-1 antibody #2 (antibody, V domains shown)
VH: EVQLVESGGGLVQPGGSLRLSCAASGFSFSGSYYMSWVRQAPGKGLEWIAYIYIGDGVTAYANWAKGRFTISKDNSKNTLYLQMNSLRAEDTAVYFCARGNKLWGPGTLVTVSS
VL: DIQMTQSPSSLSASVGDRVTIKCQASQSISSYLAWYQQKPGKAPKRLIYDASNLDSGVPSRFSGSGSGTDFTFTISSLQPEDIATYYCQCTAVSSATIYGNAFGGGTKVEIK
notes: Human IgG1 heavy chain constant region and 'human IgG1 light chain constant region'; also called humanized rabbit anti-CAPRIN-1 monoclonal antibody #2; humanized anti-CAPRIN-1 monoclonal antibody #2
B4: humanized anti-CAPRIN-1 antibody #1 (antibody, V domains shown)
VH: B3 VH with E1Q, Q13K, K73R, S76A, T79S, K102R, P106Q
VL: B3 VL with S14A, A43P
notes: Human IgG1 heavy chain constant region and 'human IgG1 light chain constant region'; also called humanized rabbit anti-CAPRIN-1 monoclonal antibody #1; humanized anti-CAPRIN-1 monoclonal antibody #1
B5: humanized anti-CAPRIN-1 antibody #3 (antibody, V domains shown)
VH: B3 VH with K73R, F96Y
VL: B3 VL
notes: Human IgG1 heavy chain constant region and 'human IgG1 light chain constant region'; also called humanized rabbit anti-CAPRIN-1 monoclonal antibody #3; humanized anti-CAPRIN-1 monoclonal antibody #3

Experiments:
[1] = target: T1, partial CAPRIN-1 polypeptide consisting …; experiment: ELISA on immobilized peptides, antibody at 0.1 µg/mL
Protocol: Each peptide was dissolved at a concentration of 30 μg/ml in a 0.1 M sodium carbonate buffer solution (pH 9.6). […] The solution in each well was discarded, and 10 mM ethanolamine/0.1 M sodium carbonate buffer solution (PH 9.6) was added thereto at a concentration of 200 μL/well and left standing at room temperature for 1 hour. Then, the solution in each well was discarded, and each well was washed twice with PBS containing 0.5% Tween 20 (PBST) to prepare a peptide-immobilized plate. For verification, CAPRIN-1 proteins were immobilized on wells of this plate to prepare another plate according to the method described above. […] After shaking at room temperature for 1 hour, the solution in each well was discarded, and each well was washed three times with PBST. Next, a secondary antibody solution containing HRP-labeled anti-rabbit IgG antibodies diluted 3000- to 4000-fold with PBST was added thereto at a concentration of 50 μL/well. Then, the solution in each well was discarded, and each well was washed six times with PBST. A TMB substrate solution (manufactured by Thermo Fisher Scientific Inc.) was added thereto at a concentration of 100 μL/well and left standing for 15 to 30 minutes to cause color reaction. […] The absorbance was measured at 450 nm and 595 nm using an absorption spectrometer.

[2] = target: T1, partial CAPRIN-1 polypeptide consisting …; experiment: ELISA as in Example 9(1), purified antibody
[3] = target: T2, human CAPRIN-1 protein having the amino …; experiment: ELISA as in Example 9(3)
[4] = target: T1, partial CAPRIN-1 polypeptide consisting …; experiment: peptide ELISA as in Example 9(3)
[5] = target: T3, CAPRIN-1 protein on the cell membrane …; experiment: flow cytometry on human cancer cell lines as in Example 9(3)

| Binder | binding result [1] | binding result [2] | binding result [3] | binding result [4] | binding result [5] |
| --- | --- | --- | --- | --- | --- |
| B1 | binds |  |  |  |  |
| B2 |  | binds |  |  |  |
| B3 |  |  | binds | binds | binds |
| B4 |  |  | binds | binds | binds |
| B5 |  |  | binds | binds | binds |

Source: patent US20150050283A1 (TORAY INDUSTRIES, published 2015)
